For assay [1], the target named is full length human tau S422A mutant (human, UniProt P10636 2-758). The assay can be described thus: ELISA, coated antigen. In general terms: An ELISA detects its analyte on a solid surface through an enzyme-linked reagent.
Assay [2] has as its target T1, MCAK_Human (88-102)[95-pSer] (human, UniProt Q99661 88-102, also: biotinylated, site not given here).
T1 construct: also called MCAK phosphopeptide
T1 peptide (looked up): IQKQKRR[pS]VNSKIPA
The assay can be described thus: ELISA, single point.

Assay [3] concerns the target T2, tau peptide residues 416 to 430 of SEQ ID NO: 01 (human, also: biotinylated, site not given here).
T2 construct: also called non-phosphorylated tau peptide
T2 peptide: SIDMVDSPQLATLAD
Briefly: ELISA, biotinylated peptide on streptavidin plate.

Assay [4] concerns the target T3, human tau(pS422) fragment SEQ ID NO: 03 (human, also: biotinylated).
T3 construct: also called phosphorylated tau peptide
T3 peptide: SIDMVD[pS]PQLATLAD
Briefly: ELISA, biotinylated peptide on streptavidin plate.
Procedure: (§1) Rabbit monoclonal antibodies were recombinantly expressed in HEK 293 cells. […] Coating with KLH or control peptides was performed at 1 μg/ml. […] After intensive washing, the binding of the rabbit antibodies was detected using a sheep anti-rabbit IgG digoxigenin conjugated detection antibody (Chemicon AQ301D). […] The antibody binding was characterized by its EC50 values. […] Cross-reactivity with KLH or MCAK phosphopeptide was estimated by single-point measurement at high concentrations, i.e. at 1:5 dilution of the cell culture supernatants.

The target in assay [5] is T3, human tau(pS422) fragment SEQ ID NO: 03. The assay can be described thus: ELISA, ratio of EC50 values.
Procedure: as §1
Assay [6] deals with T4, transferrin receptor on hCMEC/D3 cells (UniProt P02786 1-760, limits assumed).
T4 construct: whole, on cells; also called TfR
The assay can be described thus: transwell assay on hCMEC/D3 cells, huFc ELISA.

The target in assay [7] is T4, transferrin receptor on hCMEC/D3 cells. Briefly: transwell assay on hCMEC/D3 cells, huFc ELISA. This is another data set of the same source.
Assay [8] has as its target T2, tau peptide residues 416 to 430 of SEQ …. Briefly: ELISA, coated antigen.
In assay [9] the target is T3, human tau(pS422) fragment SEQ ID NO: 03. Briefly: ELISA, coated antigen.
Assay [10] addresses T4, transferrin receptor on hCMEC/D3 cells. The assay can be described thus: transwell assay on hCMEC/D3 cells, IgG ELISA.
Procedure: We used brain endothelial cells (hCMEC/D3) to investigate cell binding and transcytosis of the shuttle modules as reported herein. […] Cell monolayers were washed at room temperature in serum-free medium apically (400 μl) and basolaterally (1600 μl) three times for 3-5 minutes each. All wash volumes were collected to monitor efficiency of removal of the unbound ligand or antibody. Pre-warmed medium was added to the apical chamber and the filters transferred to a fresh 12 well plate (blocked overnight with PBS containing 1% BSA) containing 1600 μl pre-warmed medium. At this point, cells were lysed in 500 μl RIPA buffer (Sigma, Munich, Germany, #R0278) in order to determine specific uptakes. The remaining filters were incubated at 37° C. and samples collected at various time points to determine apical and/or basolateral release. The content of antibody in the samples was quantified using a highly sensitive IgG ELISA.

Results on 8 molecules are retold here after US20170106084A1 (Hoffmann-La Roche, published 2017).

Changes are numbered by the printed parent chain. Square brackets hold non-standard residues; d marks the D form. Ends that are not written are not given here. pS = N[C@@H](COP(=O)(O)O)C(=O)O

Chain of full length human tau S422A mutant (P10636 other isoform, or with tags, fused parts or gaps S422A S422A limits assumed): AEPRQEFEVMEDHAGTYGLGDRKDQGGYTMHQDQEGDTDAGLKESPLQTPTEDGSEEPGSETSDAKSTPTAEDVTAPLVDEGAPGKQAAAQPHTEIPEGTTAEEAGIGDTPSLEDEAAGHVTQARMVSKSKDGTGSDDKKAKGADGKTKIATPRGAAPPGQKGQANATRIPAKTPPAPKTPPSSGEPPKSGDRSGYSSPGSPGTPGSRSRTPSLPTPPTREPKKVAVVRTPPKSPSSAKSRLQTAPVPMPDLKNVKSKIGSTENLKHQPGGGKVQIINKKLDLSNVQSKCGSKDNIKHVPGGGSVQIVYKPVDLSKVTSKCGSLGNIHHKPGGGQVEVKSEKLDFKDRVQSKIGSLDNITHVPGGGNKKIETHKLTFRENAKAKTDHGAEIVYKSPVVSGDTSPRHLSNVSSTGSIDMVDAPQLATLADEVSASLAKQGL
T4 sequence (P02786 whole entry): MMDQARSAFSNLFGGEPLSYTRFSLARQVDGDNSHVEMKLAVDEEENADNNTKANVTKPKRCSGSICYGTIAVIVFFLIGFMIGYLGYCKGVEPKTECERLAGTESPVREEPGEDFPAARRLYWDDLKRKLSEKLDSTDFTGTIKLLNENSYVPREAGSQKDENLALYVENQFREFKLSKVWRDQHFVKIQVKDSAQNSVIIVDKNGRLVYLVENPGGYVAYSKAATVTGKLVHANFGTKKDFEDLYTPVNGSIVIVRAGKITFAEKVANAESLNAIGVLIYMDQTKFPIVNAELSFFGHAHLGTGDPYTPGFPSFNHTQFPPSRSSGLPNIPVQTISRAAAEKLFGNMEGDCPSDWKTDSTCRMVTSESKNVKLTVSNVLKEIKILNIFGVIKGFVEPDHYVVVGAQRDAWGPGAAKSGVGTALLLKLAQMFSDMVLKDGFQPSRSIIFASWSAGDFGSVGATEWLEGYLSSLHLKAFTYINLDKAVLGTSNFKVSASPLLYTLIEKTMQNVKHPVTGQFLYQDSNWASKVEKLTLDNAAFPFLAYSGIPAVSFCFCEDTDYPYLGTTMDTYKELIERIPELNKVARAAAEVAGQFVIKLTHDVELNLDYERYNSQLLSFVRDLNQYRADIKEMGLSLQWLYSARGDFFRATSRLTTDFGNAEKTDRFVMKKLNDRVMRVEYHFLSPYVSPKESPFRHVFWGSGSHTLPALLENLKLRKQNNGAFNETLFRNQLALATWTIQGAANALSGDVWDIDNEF

B1: VH00/VL00 (antibody, V domains shown)
VH: QSVEESGGRLVTPGTPLTLTCTVSGFSLSSNAINWVRQAPGKGLEWIGYIAVSGNTYYASWAKGRFTISKASTTVDLKMTSPTAEDTGTYFCGKSNIWGPGTLVTVSL
VL: AQVLTQTTSPVSAAVGSTVTISCQSSQSVRTNKLAWFQQKPGQPPKRLIYSASTLDFGVPSRFSASGSGTQFTLTISDVQCDDAATYYCLGYFDCSIADCVAFGGGTEVVVK
notes: rabbit variable domains; also called VH00 with VL00 (rabbit antibody); parent rabbit antibody
As to B1, the EC50 in [1] worked out at 0.0479 µg/mL.

B2: mAb 086 (antibody, V domains shown)
VH: B1 VH
VL: B1 VL
notes: recombinant rabbit IgG; also called rabbit antibody mAb 086
On to B2, for which the binding result in [2] is listed as “no binding”. Further, the EC50 in [3] was 0.266 µg/mL; in assay [4] it was 0.0011 µg/mL. Also, the “selectivity against non-phosphorylated tau peptide” value in assay [5] was no less than 100 fold.

B3: anti-TfR1 antibody (TfR1) (antibody, V domains shown)
VH: EVQLQQSGPELVKPGASMKISCKASGYSFTGYTMNWVKQSHGENLEWIGRINPHNGGTDYNQKFKDKAPLTVDKSSNTAYMELLSLTSEDSAVYYCARGYYYYSLDYWGQGTSVTVSS
VL: QIVLTQSPAIMSASPGEKVTMTCSASSSIRYIHWYQQRPGTSPKRWIYDTSNLASGVPARFSGSGSGTSYSLTISSMEAEDAATYYCHQRNSYPWTFGGGTRLEIKR
notes: also called parent antibody
In the case of B3, the binding result in [6] is recorded as “binds”.

B4: anti-TfR2 antibody (TfR2) (antibody, V domains shown)
VH: EVQLQQSGPELVKPGASVKMSCKASGYTFTSYVMHWVKQKPGQGLEWIGYVNPYNDDTKYNEKFRGKATLTSDKSSSTAYMELSSLTSEDSAVYYCARSYYYYSMDNWGQGTSVTVSS
VL: B3 VL with M21V, I32M, R38K, N52E, S75N, N91S, W95F, R102K
notes: also called parent antibody
Regarding B4, the binding result in assay [7] is reported as “binds”.

B5: VH32/VL21 (antibody, V domains shown)
VH: EVQVLESGGGLVQPGGSLRLSCAVSGFSLSSNAINWVRQAPGKGLEWVGYIAVSGNTYYASWAKGRFTISRDNSKNTVYLQMNSLRAEDTAVYYCGKSNIWGQGTLVTVSS
VL: AQVMTQSPSSLSASVGDRVTITCRSSQSVRTNKLAWFQQKPGQPPKRLIYSASTLDFGVPSRFSGSGSGTEFTLTISSLQPEDFATYYCLGYFDSSADIVAFGGGTKVEIK
notes: full size IgG; kappa (59) or lambda (60) light constant not specified
For the molecule B5, the values for the EC50 in assay [1], in assay [8] and in [9] were 0.0215 µg/mL, 0.634 µg/mL and 0.0044 µg/mL, respectively.

B6: VH32/VL22 (antibody, V domains shown)
VH: B5 VH
VL: B5 VL with K33R, F57Y
notes: as for B5
Regarding B6, the EC50 in assay [1] was 0.0174 µg/mL; in [8], 0.048 µg/mL.

B7: TfR1-Bio (bispecific antibody, human IgG1, kappa)
heavy: not shown
light: QIVLTQSPAIMSASPGEKVTMTCSASSSIRYIHWYQQRPGTSPKRWIYDTSNLASGVPARFSGSGSGTSYSLTISSMEAEDAATYYCHQRNSYPWTFGGGTRLEIKRTVAAPSVFIFPPSDEQLKSGTASVVCLLNNFYPREAKVQWKVDNALQSGNSQESVTEQDSKDSTYSLSSTLTLSKADYEKHKVYACEVTHQGLSSPVTKSFNRGEC
notes: bivalent anti-TfR1 IgG with an anti-biotin scFv at each CH3 C-terminus; also called anti-TfR1 antibody-Bio
In the case of B7, in [10], the binding result was “binds”.

B8: TfR2-Bio (bispecific antibody, human IgG1, kappa)
heavy: not shown
light: B7 light with M21V, I32M, R38K, N52E, S75N, N91S, W95F, R102K
notes: bivalent anti-TfR2 IgG with an anti-biotin scFv at each CH3 C-terminus; also called anti-TfR2-Bio
Turning to B8, the binding result in [10] is “binds”.

For orientation: EC50 means the concentration needed to bring the measured effect to its halfway point. Read a high EC50 as weaker potency.
